Data: patent US20250129150A1 (APOGEE THERAPEUTICS, published 2025)
“And” between values parts separate entries of the source, which are not always exact repeats. Identical values can stand only once.

Key:
hIL-13 [1] = biological target: T1, hIL-13 (human, UniProt P35225 35-146, limits assumed); assay: cell-based or functional assay
hIL-13 [2] = biological target: T1, hIL-13; assay: cell-based or functional assay; remark: listed apart in the source
hIL-13 [3] = biological target: T1, hIL-13; assay: ELISA
hIL-13 [4] = biological target: T1, hIL-13; assay: cell-based or functional assay; remark: listed apart in the source
hIL-13 [5] = biological target: T1, hIL-13; assay: cell-based or functional assay; remark: listed apart in the source
hIL-13 [6] = biological target: T1, hIL-13; assay: cell-based or functional assay; remark: listed apart in the source
[7] = biological target: T2, Recombinant Cynomolgus IL-13 Protein, His Tag (SINO BIOLOGICAL, Cat. 11057-C07H) (cynomolgus monkey, UniProt Q5I6E4 19-132 (Macaca thibetana entry)); assay: SPR (Biacore 8K), mAb captured on Protein G chip, IL-13 as analyte
T2 construct: also called Cyno IL-13; cynomolgus monkey IL-13
T2 chain: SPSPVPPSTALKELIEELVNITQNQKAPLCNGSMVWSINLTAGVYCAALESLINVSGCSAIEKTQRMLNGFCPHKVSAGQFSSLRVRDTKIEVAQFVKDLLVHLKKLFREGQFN
Description: (§1) Samples were injected in a multi-cycle manner over freshly captured mAb, by regenerating the capture surfaces with injection of glycine pH 1.5 for 30 sec at a flow rate of 30 μL/min. The data was processed and analyzed with Biacore Insight Evaluation Software Version 2.0.15.12933 (GE Healthcare) as follows. […] The responses from the two buffer blank injections were then subtracted from the reference subtracted data (2-1) to yield double-referenced data, which were fit to an 1:1 binding model to determine the apparent association (ka) and dissociation rate constants (kd). Their ratio provided the apparent equilibrium dissociation constant or affinity constant (KD=kd/ka).

[8] = biological target: T3, Recombinant Human IL-13 Protein, His Tag (Acro Cat. IL3-H52H4) (human, UniProt P35225 35-146); assay: as above
T3 construct: Bought protein; also called Hu IL-13; not shown: His Tag
T3 sequence (P35225 other isoform, or with tags, fused parts or gaps limits assumed): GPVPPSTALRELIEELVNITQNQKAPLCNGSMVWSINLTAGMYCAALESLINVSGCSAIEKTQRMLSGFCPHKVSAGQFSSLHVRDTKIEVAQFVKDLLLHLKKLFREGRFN
Description: as §1

hIL-13 [9] = biological target: T1, hIL-13; assay: cell-based or functional assay; remark: listed apart in the source
biotinylated hIL-13 = biotinylated hIL-13 (human, UniProt P35225 35-146, limits assumed, biotinylated (site not stated)); assay: FACS; blockade of biotinylated hIL-13 (0.05 ug/mL) binding to HEK293 cells expressing hIL-13Rα1/hIL-4Rα
Sequence of biotinylated hIL-13 (P35225 other isoform, or with tags, fused parts or gaps limits assumed): as above
Description: Briefly, HEK293 previously transduced to stably express both hIL-13Rα and hIL-4Rα were cultured and harvested. Cells were seeded at 200,000 cells in 100 uL per well. Cells were washed and the supernatant was discarded. […] The cells were stained in this mixture at 4° C. for 1 hour. […] Cells were incubated at 4° C. for 1 hour, protected from light. Cells were then washed and the median fluorescence intensity (MFI) of cells in each well were recorded by FACS using a BD FACSCanto II. Subsequent data were analyzed using GraphPad Prism.

T1 sequence (P35225 other isoform, or with tags, fused parts or gaps limits assumed): as above

B1: Construct 96 (antibody, human IgG1, kappa, V domains shown)
VH: EVQLLESGGGLVQPGGSLRLSCAASGFSLNAYSVNWVRQAPGKGLEWLGMIWGDGKIVYNSALKSRLTISKDSSKNTVYLQMNSLRAEDTAVYYCAGDGYYPYAMDNWGQGTTVTVSS
VL: DIQLTQSPSSLSASVGDRVTITCRASKSVDSYGNSFMHWYQQKPGKAPKLLIYLASDLESGVPSRFSGSGSGTDFTLTISSLQPEDFATYYCQQNNEDPRTFGGGTKVEIKR
TARC Release IC50 (A549 cells) (hIL-13 [1]): 1 nM

B2: Construct 114 (antibody, human IgG1, kappa, V domains shown)
VH: EVQLLESGGGLVQPGGSLRLSCAASGFSLNQYSVNWVRQAPGKGLEWLGMIWGDGKIVYNSALKSRLTISKDSSKNTVYLQMNSLRAEDTAVYYCAGDGYYPYAMDNWGQGTTVTVSS
VL: DIQLTQSPSSLSASVGDRVTITCRASKSVDSYGNSFMHWYQQKPGKAPKLLIYLASNLESGVPSRFSGSGSGTDFTLTISSLQPEDFATYYCQQNNEDPRTFGGGTKVEIKR
TARC Release IC50 (A549 cells) (hIL-13 [1]): 1.1 nM

B3: Construct 110 (antibody, human IgG1, kappa, V domains shown)
VH: EVQLLESGGGLVQPGGSLRLSCAASGFSLSAYSVNWVRQAPGKGLEWLGMIWGDGKIVYNSALKSRLTISKDSSKNTVYLQMNSLRAEDTAVYYCAGDGYYPYAMDNWGQGTTVTVSS
VL: DIQLTQSPSSLSASVGDRVTITCRASKSVDSYGNSFMHWYQQKPGKAPKLLIYLASNLESGVPSRFSGSGSGTDFTLTISSLQPEDFATYYCQQNNEDPRTFGGGTKVEIKR
TARC Release IC50 (A549 cells) (hIL-13 [1]): 1 nM

B4: Construct 108 (antibody, human IgG1, kappa, V domains shown)
VH: EVQLLESGGGLVQPGGSLRLSCAASGFSLDAYSVNWVRQAPGKGLEWLGMIWGDGKIVYNSALKSRLTISKDSSKNTVYLQMNSLRAEDTAVYYCAGDGYYPYAMDNWGQGTTVTVSS
VL: DIQLTQSPSSLSASVGDRVTITCRASKSVDSYGNSFMHWYQQKPGKAPKLLIYLASNLESGVPSRFSGSGSGTDFTLTISSLQPEDFATYYCQQNNEDPRTFGGGTKVEIKR
TARC Release IC50 (A549 cells) (hIL-13 [1]): 1 nM

B5: Construct 107 (antibody, human IgG1, kappa, V domains shown)
VH: EVQLLESGGGLVQPGGSLRLSCAASGFSLHAYSVNWVRQAPGKGLEWLGMIWGDGKIVYNSALKSRLTISKDSSKNTVYLQMNSLRAEDTAVYYCAGDGYYPYAMDNWGQGTTVTVSS
VL: DIQLTQSPSSLSASVGDRVTITCRASKSVDSYGNSFMHWYQQKPGKAPKLLIYLASNLESGVPSRFSGSGSGTDFTLTISSLQPEDFATYYCQQNNEDPRTFGGGTKVEIKR
TARC Release IC50 (A549 cells) (hIL-13 [1]): 1.3 nM

B6: Construct 141 (antibody, human IgG1, kappa, L234A L235A)
heavy: EVQLQESGPGLVKPSETLSLTCTVSGFSLNAYSVNWIRQPPGKGLEWLGMIWGDGKIVYNSALKSRLTISKDSSKNQVSLKLSSVTAADTAVYYCAGDGYYPYAMDNWGQGTTVTVSSASTKGPSVFPLAPSSKSTSGGTAALGCLVKDYFPEPVTVSWNSGALTSGVHTFPAVLQSSGLYSLSSVVTVPSSSLGTQTYICNVNHKPSNTKVDKKVEPKSCDKTHTCPPCPAPEAAGGPSVFLFPPKPKDTLYITREPEVTCVVVDVSHEDPEVKFNWYVDGVEVHNAKTKPREEQYNSTYRVVSVLTVLHQDWLNGKEYKCKVSNKALPAPIEKTISKAKGQPREPQVYTLPPSRDELTKNQVSLTCLVKGFYPSDIAVEWESNGQPENNYKTTPPVLDSDGSFFLYSKLTVDKSRWQQGNVFSCSVMHEALHNHYTQKSLSLSPG
light: DIQLTQSPSSLSASVGDRVTITCRASKSVDSYGNSFMHWYQQKPGKAPKLLIYLASELESGVPSRFSGSGSGTDFTLTISSLQPEDFATYYCQQNNEDPRTFGGGTKVEIKRTVAAPSVFIFPPSDEQLKSGTASVVCLLNNFYPREAKVQWKVDNALQSGNSQESVTEQDSKDSTYSLSSTLTLSKADYEKHKVYACEVTHQGLSSPVTKSFNRGEC
notes: also called HC1; LC6_m8
TARC Inhibition IC50 (A549 cells) (hIL-13 [2]): 0.73 nM | Kd (hIL-13 [3]): 0.025 nM | pSTAT6 Inhibition IC50 (HT-29 cells) (hIL-13 [4]): 0.25 nM | CCL2 Secretion IC50 (HaCaT cells) (hIL-13 [5]): 0.075 nM | CCL26 Secretion IC50 (HaCaT cells) (hIL-13 [5]): 0.055 nM | NTRK1 Expression IC50 (HaCaT cells) (hIL-13 [5]): 0.054 nM | TF-1 Proliferation Inhibition IC50 (hIL-13 [6]): 0.19 nM | Kd [7]: 0.329 nM | Kd [8]: 0.107 nM | CD23 Expression Inhibition IC50 (human PBMCs) (hIL-13 [9]): 0.86 nM | pSTAT6 Inhibition IC50 (human PBMCs) (hIL-13 [9]): 0.41 nM | IC50 (biotinylated hIL-13): 0.81 nM

B7: Construct 98 (antibody, human IgG1, kappa)
heavy: EVQLLESGGGLVQPGGSLRLSCAASGFSLNAYSVNWVRQAPGKGLEWLGMIWGDGKIVYNSALKSRLTISKDSSKNTVYLQMNSLRAEDTAVYYCAGDGYYPYAMDNWGQGTTVTVSSASTKGPSVFPLAPSSKSTSGGTAALGCLVKDYFPEPVTVSWNSGALTSGVHTFPAVLQSSGLYSLSSVVTVPSSSLGTQTYICNVNHKPSNTKVDKKVEPKSCDKTHTCPPCPAPELAGAPSVFLFPPKPKDTLYITREPEVTCVVVDVSHEDPEVKFNWYVDGVEVHNAKTKPREEQYNSTYRVVSVLTVLHQDWLNGKEYKCKVSNKALPAPIEKTISKAKGQPREPQVYTLPPSRDELTKNQVSLTCLVKGFYPSDIAVEWESNGQPENNYKTTPPVLDSDGSFFLYSKLTVDKSRWQQGNVFSCSVMHEALHNHYTQKSLSLSPG
light: DIQLTQSPSSLSASVGDRVTITCRASKSVDSYGNSFMHWYQQKPGKAPKLLIYLASELESGVPSRFSGSGSGTDFTLTISSLQPEDFATYYCQQNNEDPRTFGGGTKVEIKRTVAAPSVFIFPPSDEQLKSGTASVVCLLNNFYPREAKVQWKVDNALQSGNSQESVTEQDSKDSTYSLSSTLTLSKADYEKHKVYACEVTHQGLSSPVTKSFNRGEC
TARC Release IC50 (A549 cells) (hIL-13 [1]): 0.9 nM

B8: Construct 19 (antibody, human IgG1, kappa)
heavy: EVQLLESGGGLVQPGGSLRLSCAASGFSLNAYSVNWVRQAPGKGLEWLGMIWGDGKIVYNSALKSRLTISKDSSKNTVYLQMNSLRAEDTAVYYCAGDGYYPYAMDNWGQGTTVTVSSASTKGPSVFPLAPSSKSTSGGTAALGCLVKDYFPEPVTVSWNSGALTSGVHTFPAVLQSSGLYSLSSVVTVPSSSLGTQTYICNVNHKPSNTKVDKKVEPKSCDKTHTCPPCPAPELAGAPSVFLFPPKPKDTLYITREPEVTCVVVDVSHEDPEVKFNWYVDGVEVHNAKTKPREEQYNSTYRVVSVLTVLHQDWLNGKEYKCKVSNKALPAPIEKTISKAKGQPREPQVYTLPPSRDELTKNQVSLTCLVKGFYPSDIAVEWESNGQPENNYKTTPPVLDSDGSFFLYSKLTVDKSRWQQGNVFSCSVMHEALHNHYTQKSLSLSPG
light: DIQLTQSPSSLSASVGDRVTITCRASKSVDSYGNSFMHWYQQKPGKAPKLLIYLASNLESGVPSRFSGSGSGTDFTLTISSLQPEDFATYYCQQNNEDPRTFGGGTKVEIKRTVAAPSVFIFPPSDEQLKSGTASVVCLLNNFYPREAKVQWKVDNALQSGNSQESVTEQDSKDSTYSLSSTLTLSKADYEKHKVYACEVTHQGLSSPVTKSFNRGEC
TARC Release IC50 (A549 cells) (hIL-13 [1]): 1.1 nM and 1 nM

B9: Construct 137 (antibody, human IgG1, kappa, L234A L235A)
heavy: EVQLLESGGGLVQPGGSLRLSCAASGFSLNAYSVNWVRQAPGKGLEWLGMIWGDGKIVYNSALKSRLTISKDSSKNTVYLQMNSLRAEDTAVYYCAGDGYYPYAMDNWGQGTTVTVSSASTKGPSVFPLAPSSKSTSGGTAALGCLVKDYFPEPVTVSWNSGALTSGVHTFPAVLQSSGLYSLSSVVTVPSSSLGTQTYICNVNHKPSNTKVDKKVEPKSCDKTHTCPPCPAPEAAGGPSVFLFPPKPKDTLYITREPEVTCVVVDVSHEDPEVKFNWYVDGVEVHNAKTKPREEQYNSTYRVVSVLTVLHQDWLNGKEYKCKVSNKALPAPIEKTISKAKGQPREPQVYTLPPSRDELTKNQVSLTCLVKGFYPSDIAVEWESNGQPENNYKTTPPVLDSDGSFFLYSKLTVDKSRWQQGNVFSCSVMHEALHNHYTQKSLSLSPG
light: DIQLTQSPSSLSASVGDRVTITCRASKSVDSYGNSFMHWYQQKPGKAPKLLIYLASELESGVPSRFSGSGSGTDFTLTISSLQPEDFATYYCQQNNEDPRTFGGGTKVEIKRTVAAPSVFIFPPSDEQLKSGTASVVCLLNNFYPREAKVQWKVDNALQSGNSQESVTEQDSKDSTYSLSSTLTLSKADYEKHKVYACEVTHQGLSSPVTKSFNRGEC
notes: also called HC5; LC6_m8
TARC Inhibition IC50 (A549 cells) (hIL-13 [2]): 0.87 nM | Kd (hIL-13 [3]): 0.026 nM | pSTAT6 Inhibition IC50 (HT-29 cells) (hIL-13 [4]): 0.33 nM | TF-1 Proliferation Inhibition IC50 (hIL-13 [6]): 0.16 nM | Kd [7]: 0.246 nM | Kd [8]: 0.0421 nM | CD23 Expression Inhibition IC50 (human PBMCs) (hIL-13 [9]): 1.01 nM | pSTAT6 Inhibition IC50 (human PBMCs) (hIL-13 [9]): 0.44 nM | IC50 (biotinylated hIL-13): 0.89 nM
